According to article PMC10786891, “Massively parallel profiling of RNA-targeting CRISPR-Cas13d”:

T1: EsCas13d, nuclease-dead (Eubacterium siraeum, UniProt B0MS50, R295A;H300A;R849A;H854A)
T1 sequence: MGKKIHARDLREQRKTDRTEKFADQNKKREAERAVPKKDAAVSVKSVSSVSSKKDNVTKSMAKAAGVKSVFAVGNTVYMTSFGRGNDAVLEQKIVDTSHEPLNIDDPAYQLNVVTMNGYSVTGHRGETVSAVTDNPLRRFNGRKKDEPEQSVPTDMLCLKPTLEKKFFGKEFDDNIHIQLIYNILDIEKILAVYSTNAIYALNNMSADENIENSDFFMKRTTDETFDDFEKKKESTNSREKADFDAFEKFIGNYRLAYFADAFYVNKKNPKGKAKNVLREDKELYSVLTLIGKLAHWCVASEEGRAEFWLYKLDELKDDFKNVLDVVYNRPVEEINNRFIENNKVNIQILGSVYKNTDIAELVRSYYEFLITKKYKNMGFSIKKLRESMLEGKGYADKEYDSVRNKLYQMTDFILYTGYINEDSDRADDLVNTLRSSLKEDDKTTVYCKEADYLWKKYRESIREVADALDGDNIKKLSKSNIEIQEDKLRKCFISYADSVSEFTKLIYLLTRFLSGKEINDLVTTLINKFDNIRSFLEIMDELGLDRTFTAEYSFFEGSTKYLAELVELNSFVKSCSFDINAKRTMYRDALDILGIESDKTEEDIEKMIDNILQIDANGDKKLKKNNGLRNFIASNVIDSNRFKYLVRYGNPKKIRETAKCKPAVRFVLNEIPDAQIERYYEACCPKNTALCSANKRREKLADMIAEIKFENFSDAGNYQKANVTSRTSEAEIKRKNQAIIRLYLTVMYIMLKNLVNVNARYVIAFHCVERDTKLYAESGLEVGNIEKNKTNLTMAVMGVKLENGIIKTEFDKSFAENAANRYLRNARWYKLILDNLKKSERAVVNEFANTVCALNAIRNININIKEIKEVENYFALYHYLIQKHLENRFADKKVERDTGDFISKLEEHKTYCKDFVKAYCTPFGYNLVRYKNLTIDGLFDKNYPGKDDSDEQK

B1: target 1 A9G,C22A (mixed)
RNA 1: CACCCGUGCAAAAAUGCAGGGGUCUAAAACUGAGCGGAUAACCUCUCUAUGG
RNA 2: GGGAAUGGAUCCACAUCUACGAAUUCGUAACAUAGAGAGGUUGUCCGCUCACCGAGAUCGGAAGAGCACACGU
B2: target 1 U10C,A14G (mixed)
RNA 1: CACCCGUGCAAAAAUGCAGGGGUCUAAAACUGAGCGGAUAACCUCUCUAUGG
RNA 2: GGGAAUGGAUCCACAUCUACGAAUUCGUACCAUAGAGGGGUCAUCCGCUCACCGAGAUCGGAAGAGCACACGU
B3: target 1 insG 3' of 14,insC 3' of 3 (mixed)
RNA 1: CACCCGUGCAAAAAUGCAGGGGUCUAAAACUGAGCGGAUAACCUCUCUAUGG
RNA 2: GGGAAUGGAUCCACAUCUACGAAUUCGUACCAUAGAGAGGGUUAUCCGCUCCACCGAGAUCGGAAGAGCACACGU
B4: target 2 MT 5'PFS UGG 3'PFS AGU (mixed)
RNA 1: CACCCGUGCAAAAUUGCAGGGGUCUAAAACCUUCUCCAAAUUGUUUCAUCCU
RNA 2: GGGAAUGGAUCCACAUCUACGAAUUCUGGAGGAUGAAACAAUUUGGAGAAGAGUAGAUCGGAAGAGCACACGU
B5: target 2 MT 5'PFS GAA 3'PFS CUA (mixed)
RNA 1: CACCCGUGCAAAAUUGCAGGGGUCUAAAACCUUCUCCAAAUUGUUUCAUCCU
RNA 2: GGGAAUGGAUCCACAUCUACGAAUUCGAAAGGAUGAAACAAUUUGGAGAAGCUAAGAUCGGAAGAGCACACGU
B6: target 2 MT 5'PFS GCA 3'PFS UCA (mixed)
RNA 1: CACCCGUGCAAAAUUGCAGGGGUCUAAAACCUUCUCCAAAUUGUUUCAUCCU
RNA 2: GGGAAUGGAUCCACAUCUACGAAUUCGCAAGGAUGAAACAAUUUGGAGAAGUCAAGAUCGGAAGAGCACACGU
B7: target 2 MT 5'PFS UCA 3'PFS CAA (mixed)
RNA 1: CACCCGUGCAAAAUUGCAGGGGUCUAAAACCUUCUCCAAAUUGUUUCAUCCU
RNA 2: GGGAAUGGAUCCACAUCUACGAAUUCUCAAGGAUGAAACAAUUUGGAGAAGCAAAGAUCGGAAGAGCACACGU
B8: target 2 MT 5'PFS CUG 3'PFS CUC (mixed)
RNA 1: CACCCGUGCAAAAUUGCAGGGGUCUAAAACCUUCUCCAAAUUGUUUCAUCCU
RNA 2: GGGAAUGGAUCCACAUCUACGAAUUCCUGAGGAUGAAACAAUUUGGAGAAGCUCAGAUCGGAAGAGCACACGU
B9: target 2 MT 5'PFS UGU 3'PFS CUU (mixed)
RNA 1: CACCCGUGCAAAAUUGCAGGGGUCUAAAACCUUCUCCAAAUUGUUUCAUCCU
RNA 2: GGGAAUGGAUCCACAUCUACGAAUUCUGUAGGAUGAAACAAUUUGGAGAAGCUUAGAUCGGAAGAGCACACGU
B10: target 2 MT 5'PFS GAA 3'PFS CUG (mixed)
RNA 1: CACCCGUGCAAAAUUGCAGGGGUCUAAAACCUUCUCCAAAUUGUUUCAUCCU
RNA 2: GGGAAUGGAUCCACAUCUACGAAUUCGAAAGGAUGAAACAAUUUGGAGAAGCUGAGAUCGGAAGAGCACACGU
B11: target 2 MT 5'PFS UGU 3'PFS CUC (mixed)
RNA 1: CACCCGUGCAAAAUUGCAGGGGUCUAAAACCUUCUCCAAAUUGUUUCAUCCU
RNA 2: GGGAAUGGAUCCACAUCUACGAAUUCUGUAGGAUGAAACAAUUUGGAGAAGCUCAGAUCGGAAGAGCACACGU
B12: target 2 MT 5'PFS CUG 3'PFS CUU (mixed)
RNA 1: CACCCGUGCAAAAUUGCAGGGGUCUAAAACCUUCUCCAAAUUGUUUCAUCCU
RNA 2: GGGAAUGGAUCCACAUCUACGAAUUCCUGAGGAUGAAACAAUUUGGAGAAGCUUAGAUCGGAAGAGCACACGU
B13: target 2 MT 5'PFS UCA 3'PFS CAG (mixed)
RNA 1: CACCCGUGCAAAAUUGCAGGGGUCUAAAACCUUCUCCAAAUUGUUUCAUCCU
RNA 2: GGGAAUGGAUCCACAUCUACGAAUUCUCAAGGAUGAAACAAUUUGGAGAAGCAGAGAUCGGAAGAGCACACGU
B14: target 2 MT 5'PFS ACC 3'PFS CAU (mixed)
RNA 1: CACCCGUGCAAAAUUGCAGGGGUCUAAAACCUUCUCCAAAUUGUUUCAUCCU
RNA 2: GGGAAUGGAUCCACAUCUACGAAUUCACCAGGAUGAAACAAUUUGGAGAAGCAUAGAUCGGAAGAGCACACGU
B15: target 2 MT 5'PFS GAA 3'PFS CUU (mixed)
RNA 1: CACCCGUGCAAAAUUGCAGGGGUCUAAAACCUUCUCCAAAUUGUUUCAUCCU
RNA 2: GGGAAUGGAUCCACAUCUACGAAUUCGAAAGGAUGAAACAAUUUGGAGAAGCUUAGAUCGGAAGAGCACACGU
B16: target 2 MT 5'PFS UCU 3'PFS UUG (mixed)
RNA 1: CACCCGUGCAAAAUUGCAGGGGUCUAAAACCUUCUCCAAAUUGUUUCAUCCU
RNA 2: GGGAAUGGAUCCACAUCUACGAAUUCUCUAGGAUGAAACAAUUUGGAGAAGUUGAGAUCGGAAGAGCACACGU
B17: target 2 MT 5'PFS UGG 3'PFS CAC (mixed)
RNA 1: CACCCGUGCAAAAUUGCAGGGGUCUAAAACCUUCUCCAAAUUGUUUCAUCCU
RNA 2: GGGAAUGGAUCCACAUCUACGAAUUCUGGAGGAUGAAACAAUUUGGAGAAGCACAGAUCGGAAGAGCACACGU
B18: target 2 MT 5'PFS UGG 3'PFS AGC (mixed)
RNA 1: CACCCGUGCAAAAUUGCAGGGGUCUAAAACCUUCUCCAAAUUGUUUCAUCCU
RNA 2: GGGAAUGGAUCCACAUCUACGAAUUCUGGAGGAUGAAACAAUUUGGAGAAGAGCAGAUCGGAAGAGCACACGU
B19: target 2 MT 5'PFS UCA 3'PFS CAU (mixed)
RNA 1: CACCCGUGCAAAAUUGCAGGGGUCUAAAACCUUCUCCAAAUUGUUUCAUCCU
RNA 2: GGGAAUGGAUCCACAUCUACGAAUUCUCAAGGAUGAAACAAUUUGGAGAAGCAUAGAUCGGAAGAGCACACGU
B20: target 2 MT 5'PFS ACA 3'PFS UCA (mixed)
RNA 1: CACCCGUGCAAAAUUGCAGGGGUCUAAAACCUUCUCCAAAUUGUUUCAUCCU
RNA 2: GGGAAUGGAUCCACAUCUACGAAUUCACAAGGAUGAAACAAUUUGGAGAAGUCAAGAUCGGAAGAGCACACGU
B21: target 2 MT 5'PFS CUG 3'PFS CUG (mixed)
RNA 1: CACCCGUGCAAAAUUGCAGGGGUCUAAAACCUUCUCCAAAUUGUUUCAUCCU
RNA 2: GGGAAUGGAUCCACAUCUACGAAUUCCUGAGGAUGAAACAAUUUGGAGAAGCUGAGAUCGGAAGAGCACACGU
B22: target 2 MT 5'PFS UCA 3'PFS ACA (mixed)
RNA 1: CACCCGUGCAAAAUUGCAGGGGUCUAAAACCUUCUCCAAAUUGUUUCAUCCU
RNA 2: GGGAAUGGAUCCACAUCUACGAAUUCUCAAGGAUGAAACAAUUUGGAGAAGACAAGAUCGGAAGAGCACACGU
B23: target 2 MT 5'PFS UAU 3'PFS GAU (mixed)
RNA 1: CACCCGUGCAAAAUUGCAGGGGUCUAAAACCUUCUCCAAAUUGUUUCAUCCU
RNA 2: GGGAAUGGAUCCACAUCUACGAAUUCUAUAGGAUGAAACAAUUUGGAGAAGGAUAGAUCGGAAGAGCACACGU
B24: target 2 MT 5'PFS UGU 3'PFS CUA (mixed)
RNA 1: CACCCGUGCAAAAUUGCAGGGGUCUAAAACCUUCUCCAAAUUGUUUCAUCCU
RNA 2: GGGAAUGGAUCCACAUCUACGAAUUCUGUAGGAUGAAACAAUUUGGAGAAGCUAAGAUCGGAAGAGCACACGU
B25: target 2 MT 5'PFS CUG 3'PFS CUA (mixed)
RNA 1: CACCCGUGCAAAAUUGCAGGGGUCUAAAACCUUCUCCAAAUUGUUUCAUCCU
RNA 2: GGGAAUGGAUCCACAUCUACGAAUUCCUGAGGAUGAAACAAUUUGGAGAAGCUAAGAUCGGAAGAGCACACGU
B26: target 2 MT 5'PFS GAA 3'PFS CUC (mixed)
RNA 1: CACCCGUGCAAAAUUGCAGGGGUCUAAAACCUUCUCCAAAUUGUUUCAUCCU
RNA 2: GGGAAUGGAUCCACAUCUACGAAUUCGAAAGGAUGAAACAAUUUGGAGAAGCUCAGAUCGGAAGAGCACACGU
B27: target 2 MT 5'PFS GCG 3'PFS AUU (mixed)
RNA 1: CACCCGUGCAAAAUUGCAGGGGUCUAAAACCUUCUCCAAAUUGUUUCAUCCU
RNA 2: GGGAAUGGAUCCACAUCUACGAAUUCGCGAGGAUGAAACAAUUUGGAGAAGAUUAGAUCGGAAGAGCACACGU
B28: target 2 MT 5'PFS UCA 3'PFS ACG (mixed)
RNA 1: CACCCGUGCAAAAUUGCAGGGGUCUAAAACCUUCUCCAAAUUGUUUCAUCCU
RNA 2: GGGAAUGGAUCCACAUCUACGAAUUCUCAAGGAUGAAACAAUUUGGAGAAGACGAGAUCGGAAGAGCACACGU

Target: T1, EsCas13d, nuclease-dead
Assay: crRNA (strand 1, pre-loaded); Mg2+; 40 mM Tris-HCl pH 7.5, 150 mM NaCl, 6 mM MgCl2, 1 mM DTT, 0.1% Tween-20, 0.2 mg/ml BSA; 25 C; 10 min per concentration, then washed
Conditions: tags: His6-TwinStrep-SUMO cleaved; N-terminal SNAP kept (SNAP-Surface 488); label: 3' end held by stalled T7 RNA polymerase

Binder | Kd [nM]
B1 | 21.9 ± 1.3
B2 | 34.1 ± 2.8
B3 | 10.5 ± 0.9
B4 | 8 ± 0.8
B5 | 6.9 ± 1.1
B6 | 10.9 ± 2.1
B7 | 5.3 ± 1.2
B8 | 5.7 ± 0.6
B9 | 14.6 ± 2
B10 | 11.2 ± 1.4
B11 | ~50
B12 | 3.55 ± 0.34
B13 | 3.1 ± 0.4
B14 | 10 ± 4
B15 | 15.1 ± 2.7
B16 | 16.9 ± 2.8
B17 | 15.3 ± 2.5
B18 | 6 ± 0.9
B19 | 4.8 ± 1.1
B20 | 8.7 ± 3.2
B21 | 2.67 ± 0.23
B22 | 3.6 ± 0.5
B23 | ~44
B24 | 12.9 ± 2
B25 | 3.2 ± 0.4
B26 | 16 ± 4
B27 | 12.6 ± 2
B28 | 3.6 ± 0.6
